From PMC10971408
Several values for one entry are separate records, joined by “and”; a condition that tells them apart may be missing. Identical values can stand only once.

Molecular target: Cys101 (UniProt position 101, YVTSVCTGSLV)
Assay: crystallography
Conditions: data collected at 100 K; crystals grown at 20°C; 200 mM MgCl2 in reservoir; 100 mM tris-HCl (pH 8.3), sodium citrate (pH 6.0), or sodium acetate (pH 4.2, 5.0, 5.4); 23% PEG 3350, 2 mM DTT; substrate-free wild-type enzyme in crystals, reduced Cys101 (DTT present)

Isocyanide hydratase (ICH, PfICH) (Pseudomonas fluorescens)
pKa: 5.7 and 5 to 6
